Here are results for one molecule from US20240425607A1, “IL-18BP ANTAGONIST ANTIBODIES AND THEIR USE IN MONOTHERAPY AND COMBINATION THERAPY IN THE TREATMENT OF CANCER” (Compugen Ltd., priority 2023, published 2024).

Data set [1] can be described thus: Fab Tm by dynamic scanning fluorimetry (DSF). Format: physicochemical. As to conditions: optimized antibodies. The procedure:
10 μL of 20× Sypro Orange is added to 20 μL of 0.2-1 mg/mL mAb or Fab solution. A RT-PCR instrument (BioRad CFX96 RT PCR) is used to ramp the sample plate temperature from 40 to 95° C. at 0.5° C. increment, with 2 min equilibrate at each temperature. The negative of first derivative for the raw data is used to extract Tm.

Another data set in a line: SEC-HPLC % monomer. As to conditions: optimized antibodies. Format: physicochemical. The method, then: A TSKgel SuperSW mAb HTP column (22855) was used for fast SEC analysis of mammalian produced mAbs at 0.4 mL/min with a cycle time of 6 min/run. 200 mM Sodium Phosphate and 250 mM Sodium Chloride was used as the mobile phase.
Background: Size exclusion chromatography separates by hydrodynamic size, large species first.

The target of data set [2] is T1, recombinant human IL18-BP (Homo sapiens, UniProt O95998).
T1 construct: purchased R&D systems 119-BP
T1 sequence (O95998 31-194): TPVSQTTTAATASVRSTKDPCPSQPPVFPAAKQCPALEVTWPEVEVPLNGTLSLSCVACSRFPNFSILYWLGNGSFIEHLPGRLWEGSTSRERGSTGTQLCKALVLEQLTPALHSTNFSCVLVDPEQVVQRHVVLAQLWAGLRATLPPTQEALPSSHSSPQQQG
Briefly: MEL624:TIL assay. Format: cell-based. As to conditions: rhIL-18 30 ng/ml + rhIL-18BP 1 μg/ml, vs isotype control. The procedure: Human MEL624 cells were thawed and grown in DMEM with 10% FBS, 1% Glutamax, 1% Penicillin-Streptomycin Solution and 1% HEPES buffer. The cells were then seeded at 75 k cells/well in a 96 well plate in the assay medium (IMDM with 10% human serum, 1% Glutamax, 1% MEM eagle, 1% Sodium Pyruvate and 1% Penicillin-Streptomycin Solution) and incubated 1 hour in 37° C., 5% CO2 incubator before co-culture with human tumor infiltrating lymphocytes that were previously expanded using known melanoma antigens (TILs). Human TILs were thawed in full TIL media and 75 k cells/well were co-cultured with the MEL624 cells to create an effector: target ratio of 1:1. The co-cultured cells were then treated with rhIL-18 (30 ng/ml) and rhIL-18BP (1 μg/ml) for 30 min in 37° C., 5% CO2 incubator to allow IL-18:IL-18BP complex formation. After 30 minutes, anti-human IL-18BP mAb (ADI-71722, dose titration, 30 μg/ml-0.01 μg/ml, dilution factor of 1:3) or relevant isotype control (hIgG1 30 μg/ml) were added to the co-culture to examine its capability to restore IL-18 activity. Cells and all added solutions were prepared in full assay medium to a final volume of 200 μl/well. Plates were incubated for 24 hours in 37° C., 5% CO2 incubator, after which the supernatant was collected for cytokine secretion evaluation. All tests were done in triplicates and each repeated with TIL four donors. […]

Data set [3] deals with T1, recombinant human IL18-BP. Briefly: CMV recall assay. The data set is classed as cell-based. The procedure:
Human MEL-624 overexpressing PD-L1 cells were thawed and loaded with CMV pp65 peptide (0.03 μg/ml). The cells were seeded at 100K/well in a 96 well plate and incubated for 30 minutes in 37° C., 5% C02 incubator with a combination rhIL-18 (30 ng/ml, R&D systems, 9124-IL/CF) and rhIL-18BP-Fc chimeric protein (2 μg/ml, R&D systems 119-BP) to allow IL-18+IL-18BP complex formation. After 30 minutes, anti-human IL-18BP (ADI-71722), anti-human PVRIG, anti-human TIGIT (anti-TIGIT), anti-human PD1 (Pembrolizumab) or relevant isotype control (hIgG4) were added to the culture to examine their capability to restore IL-18 activity. All antibodies were added to a final concentration of 10 μg/ml. 30 minutes post incubation with antibodies, thawed CMV-reactive T-cells were added to the culture. Cells and all added solutions were prepared in full IMDM (IMDM media with 10% human serum, 1% Glutamax, 1% MEM eagle, 1% sodium pyruvate, and 1% Penicillin-Streptomycin Solution) to a final volume of 200 μl/well. Plates were incubated for 24 hours in 37° C., 5% C02 incubator, after which the supernatant was collected for IFNγ secretion evaluation. All tests were done in triplicates and each repeated with three donors.
MEL624 cells that overexpress PD-L1 were loaded with CMV peptide pp65. […] CMV-specific T-cells were then added to the culture and IFNg secretion was measured after an overnight incubation.

“Also recorded” adds a separate entry of the source.

B1: ADI-71739: anti-IL18-BP antibody, sequences in FIG. 2K; 66716 lineage (antibody, V domains shown)
VH: QLQLQESGPGLVKPSETLSLTCTVSGGSISSPDYPWGWIRQPPGKGLEWIGSIYYQGATYYNPSLKSRVTISVDTSKNQFSLKLSSVTAADTAVYYCARGPYRQLFDYWGQGTLVTVSS
VL: DIQMTQSPSSVSASVGDRVTITCRASQGISSWLAWYQQKPGKAPKLLIYAASSLQSGVPSRFSGSGSGTDFTLTISSLQPEDFATYYCQQGSVFPYTFGGGTKVEIK
In the case of B1, the “Fab Tm (DSF, ° C.)” value in data set [1] stood at 73.0 °C. In the data set “SEC-HPLC % monomer”, the “SEC-HPLC, % monomer” value came out at 94.9%. For the same molecule, in data set [2], the “IFNγ secretion from TILs” value was “increase IFNγ secretion from TILs”. Moreover, the “IFNγ secretion by CMV-reactive T-cells, as mono” value in data set [3] (10 μg/ml, rhIL-18 30 ng/ml + rhIL-18BP 2 μg/ml) is “increase IFNγ secretion from CMV-reactive T-cells; also recorded: increase IFNγ secretion by the T cells”. Moreover, the “IFNγ secretion by CMV-reactive T-cells, in combination” value in data set [3] (combined with Pembrolizumab, anti-PVRIG or anti-TIGIT, each 10 μg/ml, vs mono) is reported as “in a more potent manner; also recorded: augmented”.
